Test results as given in patent publication US20250320281A1 (published 2025).
Positions count from the first letter of the chain named.

B1: 1496_C09 (PG9) (TCN-109) (antibody, V domains shown)
VH: QRLVESGGGVVQPGSSLRLSCAASGFDFSRQGMHWVRQAPGQGLEWVAFIKYDGSEKYHADSVWGRLSISRDNSKDTLYLQMNSLRVEDTATYFCVREAGGPDYRNGYNYYDFYDGYYNYHYMDVWGKGTTVTVSS
VL: QSALTQPASVSGSPGQSITISCNGTSNDVGGYESVSWYQQHPGKAPKVVIYDVSKRPSGVSNRFSGSKSGNTASLTISGLQAEDEGDYYCKSLTSTRRRVFGTGTKLTVLG
B2: 1460_G14 (PGG14) (antibody, human IgG1, kappa, V domains shown)
VH: QVLLVQSGTEVKKPGSSVKVSCQASGGAFSSYAFSWVRQAPGQGLEWMGMITPVFGETKYAPRFQGRLTLTAEESLSTTYMELRSLTSDDTAFYYCTRDRRVVPMATDNWLDPWGQGTLVTVSS
VL: DIQLTQSPSSLSASVGDRVTVTCRASQTIHTYLNWYQQIPGKAPKLLIYGASTLQSGVPSRFSGSGSGTDFTLTINSLQPEDFATYYCQQSYSTPRTFGQGTRLDIKR
B3: 1456_P20 (PG20) (antibody, human IgG1, kappa, V domains shown)
VH: QVRLVQSGPEVKKPGSSVTVSCQASGGTFSSYAFTWVRQAPGQGLEWLGMVTPIFGEAKYSQRFEGRVTITADESTSTTSIELRGLTSEDTAIYYCARDRRAVPIATDNWLDPWGQGTLVTVSS
VL: B2 VL with T20S, V21I, H30N, T31N, I39T, T53N, S56N, N76S, Y92F
B4: 1460_G14 (PGG14) (antibody, human IgG1, kappa, V domains shown)
VH: B2 VH
VL: B2 VL
B5: 1495_C14 (PGC14) (antibody, human IgG1, lambda, V domains shown)
VH: DGHLVQSGVEVKKTGATVKISCKVSGYSFIDYYLHWVQRAPGKGLEWVGLIDPENGEARYAEKFQGRVTIIADTSIDTGYMEMRSLKSEDTAVYFCAAGAVGADSGSWFDPWGQGTLVTVSS
VL: SYELTQPPSVSVSPGQTASITCSGSKLGDKYVSWYQLRPGQSPILVMYENDRRPSGIPERFSGSNSGDTATLTISGTQALDEADFYCQAWETTTTTFVFFGGGTQLTVLG
B6: 1443_C16 (PG16) (TCN-116) (antibody, V domains shown)
VH: QEQLVESGGGVVQPGGSLRLSCLASGFTFHKYGMHWVRQAPGKGLEWVALISDDGMRKYHSDSMWGRVTISRDNSKNTLYLQFSSLKVEDTAMFFCAREAGGPIWHDDVKYYDFNDGYYNYHYMDVWGKGTTVTVSS
VL: QSALTQPASVSGSPGQTITISCNGTSSDVGGFDSVSWYQQSPGKAPKVMVFDVSHRPSGISNRFSGSKSGNTASLTISGLHIEDEGDYFCSSLTDRSHRIFGGGTKVTVLG

Key:
Assay in all cases: cell-based or functional assay
[1] = target: HIV-1 94UG103 Env (pseudovirus) (HIV-1 isolate 94UG103)
[2] = target: HIV-1 93UG077 Env (pseudovirus) (HIV-1 isolate 93UG077)
[3] = target: HIV-1 APV-6 Env (pseudovirus) (HIV-1 isolate APV-6)
[4] = target: HIV-1 IAVI-C18 Env (pseudovirus) (HIV-1 isolate IAVI-C18)
[5] = target: HIV-1 92RW020 Env (pseudovirus) (HIV-1 isolate 92RW020)
[6] = target: HIV-1 APV-17 Env (pseudovirus) (HIV-1 isolate APV-17)
[7] = target: HIV-1 IAVI-C3 Env (pseudovirus) (HIV-1 isolate IAVI-C3)
[8] = target: HIV-1 APV-13 Env (pseudovirus) (HIV-1 isolate APV-13)
[9] = target: HIV-1 92BR020 Env (pseudovirus) (HIV-1 isolate 92BR020)
[10] = target: HIV-1 92UG005 Env (pseudovirus) (HIV-1 isolate 92UG005)
[11] = target: HIV-1 CMU02 Env (pseudovirus) (HIV-1 isolate CMU02)
[12] = target: HIV-1 92TH021 Env (pseudovirus) (HIV-1 isolate 92TH021)
[13] = target: HIV-1 93IN905 Env (pseudovirus) (HIV-1 isolate 93IN905)
[14] = target: HIV-1 92UG024 Env (pseudovirus) (HIV-1 isolate 92UG024)
[15] = target: HIV-1 IAVI-C22 Env (pseudovirus) (HIV-1 isolate IAVI-C22)
[16] = target: HIV-1 93IN905 Env on pseudotyped virus (HIV-1 isolate 93IN905)
[17] = target: HIV-1 92TH021 Env on pseudotyped virus (HIV-1 isolate 92TH021)
[18] = target: HIV-1 SF162 Env on pseudotyped virus (HIV-1 isolate SF162)
[19] = target: HIV-1 IAVI_C22 Env on pseudotyped virus (HIV-1 isolate IAVI_C22)
[20] = target: HIV-1 92BR020 Env on pseudotyped virus (HIV-1 isolate 92BR020)
[21] = target: HIV-1 94UG103 Env on pseudotyped virus (HIV-1 isolate 94UG103)
[22] = target: HIV-1 NL43 Env on pseudotyped virus (HIV-1 NL43)

Row | Binder | IC50 (µg/mL), pseudovirus neutralization [1] [µg/mL] | IC50 (µg/mL), pseudovirus neutralization [2] [µg/mL] | IC50 (µg/mL), pseudovirus neutralization [3] [µg/mL] | IC50 (µg/mL), pseudovirus neutralization [4] [µg/mL] | IC50 (µg/mL), pseudovirus neutralization [5] [µg/mL] | IC50 (µg/mL), pseudovirus neutralization [6] [µg/mL] | IC50 (µg/mL), pseudovirus neutralization [7] [µg/mL] | IC50 (µg/mL), pseudovirus neutralization [8] [µg/mL] | IC50 (µg/mL), pseudovirus neutralization [9] [µg/mL] | IC50 (µg/mL), pseudovirus neutralization [10] [µg/mL] | IC50 (µg/mL), pseudovirus neutralization [11] [µg/mL] | IC50 (µg/mL), pseudovirus neutralization [12] [µg/mL] | IC50 (µg/mL), pseudovirus neutralization [13] [µg/mL] | IC50 (µg/mL), pseudovirus neutralization [14] [µg/mL] | IC50 (µg/mL), pseudovirus neutralization [15] [µg/mL] | other results
1 | B1 | 0.17 | > 50 | 0.09 | 0.05 | 0.06 | 26.4 | 12.9 | > 50 | > 50 | > 50 | > 50 |  |  |  |  | 
2 | B2 | > 50 | > 50 | > 50 | > 50 | > 50 | > 50 | > 50 | > 50 | > 50 | > 50 | > 50 | > 50 | > 50 | > 50 | > 50 | 
3 | B3 | > 50 | > 50 | 25.8 | > 50 | 50 | > 50 | > 50 | > 50 | > 50 | > 50 | > 50 | > 50 | > 50 | > 50 | > 50 | 
4 | B4 |  |  |  |  |  |  |  |  |  |  |  |  |  |  |  | Neutralizing Antibody Assay: IC50; Virus/Ab Incubation 1 hour [16]: > 50 µg/mL; Neutralizing Antibody Assay: IC50; Virus/Ab Incubation 18 hour [16]: 3.17 µg/mL; Neutralizing Antibody Assay: IC50; Virus/Ab Incubation 1 hour [17]: > 50 µg/mL; Neutralizing Antibody Assay: IC50; Virus/Ab Incubation 18 hour [17]: > 50 µg/mL; Neutralizing Antibody Assay: IC50; Virus/Ab Incubation 1 hour [18]: 0.179 µg/mL; Neutralizing Antibody Assay: IC50; Virus/Ab Incubation 18 hour [18]: 0.0573 µg/mL; Neutralizing Antibody Assay: IC50; Virus/Ab Incubation 1 hour [19]: > 50 µg/mL; Neutralizing Antibody Assay: IC50; Virus/Ab Incubation 18 hour [19]: > 50 µg/mL; Neutralizing Antibody Assay: IC50; Virus/Ab Incubation 1 hour [20]: > 50 µg/mL; Neutralizing Antibody Assay: IC50; Virus/Ab Incubation 18 hour [20]: > 50 µg/mL; Neutralizing Antibody Assay: IC50; Virus/Ab Incubation 1 hour [21]: > 50 µg/mL; Neutralizing Antibody Assay: IC50; Virus/Ab Incubation 18 hour [21]: > 50 µg/mL; Neutralizing Antibody Assay: IC50; Virus/Ab Incubation 1 hour [22]: 0.17 µg/mL; Neutralizing Antibody Assay: IC50; Virus/Ab Incubation 18 hour [22]: 0.05 µg/mL
5 | B5 | > 50 | > 50 | 7.41 | > 50 | 28.6 | > 50 | 9.5 | > 50 | 0.64 | > 50 | > 50 | > 50 | > 50 | > 50 | > 50 | 
6 | B6 | 0.008 | > 50 | 0.08 | 0.007 | 0.004 | > 50 | 14.8 | > 50 | > 50 | > 50 | > 50 | 0.13 | 0.1 | > 50 | 0.069 | 
